Test system: Saccharomyces cerevisiae
Test: transcriptional activation domain activity (GFP:mCherry ratio, weighted mean of sorted bins, harmonized to initial dataset scale) (arbitrary fluorescence ratio units); higher = stronger transcriptional activation
Conditions: beta-estradiol 1 µM; induction time 4 h
How it was run: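 Yeast diploids with a GFP reporter received barcoded protein tiles, fused to an estradiol-inducible synthetic transcription factor, at the URA3 locus. Cultures were diluted 1:5 into SC holding 1 uM beta-estradiol, incubated 4 hours at 30 °C, sorted into 8 bins on GFP:mCherry ratio, and sequenced for barcodes, with tiles under 50 reads discarded. Activation activity values come from the read-weighted mean of bin median fluorescence, averaged across barcodes and linearly placed on the initial dataset scale.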

MLWGNVGTSIKIWYGVFFCYCSIVLFRSSLYIINFFLLCFFFFFVFFLWFFYH
transcriptional activation domain activity: 44400

MLWLVSWWLCLVVSNTLLFYLGEGGLVCFILCNSSFQVYLFLDLFIFLLFIHS
transcriptional activation domain activity: 39800

MLWVCTSRKGESRVVCLGLAHLSIWIRGLLVLERILVCSMSLSCWRVGILKCT
transcriptional activation domain activity: 53800

MLYFFFFYVYNVNIKQYLSIIMILFINGFSFYIYFLFHFLYIFFFFFLTITLS
transcriptional activation domain activity: 88500

MLYIIMKINLFMKVIMLFLVKLIVHYLMILLSLVLLLILLSSFIYICYILVLF
transcriptional activation domain activity: 37800

MLYINHFLHSPRGLVEQAKSLFFLYLSFFFLFFFFPFISFHFSFNVPFSLNCI
transcriptional activation domain activity: 50900

MLYLCFLISFYSLCFLFSYFFNFVLDILFFYYFIIFLFSYFSIFLFSYFLICL
transcriptional activation domain activity: 54300

MLYLYPLYLGYYLFLFLSISRLEKFLHIGSLITCLPRLVSLEIRLTLCLYYHL
transcriptional activation domain activity: 80100

MLYQLFYFSRTKLIILVFFVLFSLLIISLFFFLFIPPFTFFFPFHMPEVFQNI
transcriptional activation domain activity: 38200

MLYRVYLDIFFFLYCLFVLGAFQDTRRFLFKFWAFPLLKVWQVVTIHLTCTQY
transcriptional activation domain activity: 61800

MLYSFRLLFILFFFLLEALSICRRCNVTGRGCFRDWDCWNACHQYAVSPRWGI
transcriptional activation domain activity: 41900

MLYSFSFTTIGYILAFNPPDGRFFYLMLLGLFVQHLIVYVILFVLILLPICVY
transcriptional activation domain activity: 34300

MLYVRCVISYIHIYNIFIHVTVSVHPEWWAFVSLTCFTLHVYLLHFLSAVARC
transcriptional activation domain activity: 67000

MLYYYHYLAVQSGLKRKYAFKNMYLCLLLYSLFFVFASINIVHLIKWQCYFFV
transcriptional activation domain activity: 45800

MMACLVSGIGWCLLYFTCMYLLLIYYILSLFYPPLASCNSFSFFFLSFFFFAG
transcriptional activation domain activity: 67200

MMAEGERPLATMCSVLSVCYVCVRLVLSNLIWIVLCSSPRPLPMALLSLLAHR
transcriptional activation domain activity: 32900

MMAMAFDPGFRDDEVVQFLLYELGVSSLLFCFVCFGDFVDFLDPFAFWVDLLF
transcriptional activation domain activity: 48600

MMAPSCSICLPLVLPPLLCQIFSPLILSLFPYPLHCLCMLFFQLIYMPLFFFF
transcriptional activation domain activity: 68200

MMDCGRRTSFQAFIFLSLFLVHQVSFCCVYLICFFFFLFFLSFLYSFPFPFFF
transcriptional activation domain activity: 26400

MMDCRRRTGFQAFFLSFLSLVLSSFFLLCLFNPYVCVFFLIFHYRLTFSVIWS
transcriptional activation domain activity: 49100

MMELEGWDGGPYIWVDLVILFWLFVILLDWFFLLAIFSTVRGSPGLVGVFFFF
transcriptional activation domain activity: 52100

MMFCLRSFIPLLLLPLPPSLSPLHLVLLLFLTYILNRPCIYCSFLLLILFVSS
transcriptional activation domain activity: 60600

MMFETHFWSLSSLLLFFFSFFLFLSLYLGVSILFFQFPFPFPFPFPFFFYLFL
transcriptional activation domain activity: 39500

MMFETHFWSLSSLLLLFFLSFFFFLYIWGSRFFFFQFPFPFPFPFPFFFSIFF
transcriptional activation domain activity: 53800

MMFFFFFLVSFIYFWIGAPVGFFILKIKFVMLDVQSLHLAIFLICPHLCFYVM
transcriptional activation domain activity: 54400

MMGLRELHAASREFAMLFWREPRLDLALFLLLFLFFFVLFLFFCLFFFFCLVF
transcriptional activation domain activity: 15100

MMGLSLGFKCCFQMLSLFSILFSFHLVLRLLSFPFFSCSYCILYRFLFFCWGW
transcriptional activation domain activity: 24500

MMHCLRYFLLLLFLPFPSAPPYLLLLFIVSMFLYHRPCAYCTFLIMSIFSATC
transcriptional activation domain activity: 76700

MMHLSIRDEQKVSLCLTIYLFIFFFFFLILFLWLEGVYLFFLLMTFFLRPYSS
transcriptional activation domain activity: 43800

MMHSLHPLSISILSLDFNLSYLLFVLPCHRIICSFFRLLAVLFHFFLFIGFYL
transcriptional activation domain activity: 60300

Reference: the supplement of paper PMC12636428
